Experimental data from the supplement of paper PMC7125110.
± gives the standard error. For part of these data: Variants at the floor of the assay were thinned out.

B1: glmS ribozyme (parent)
chain: AUAAAAGCGCCAGAACUACAGAAAUGUAGUUGACGAGGAGGAGGUUUAUCGAAUUUUCGGCGGAUGCCUCCAAA

Experiments:
Details in all cases: with glucosamine-6-phosphate
[1] = variants of: B1; experiment: kcat; higher = faster cleavage; RNA array
Method in brief: (§1)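 A hybridised Cy3 probe tracked barcoded ribozyme variants, transcribed in situ by E. coli RNA polymerase on sequenced MiSeq chips, at 37 °C. The variants received 40 μM to 10 mM glucosamine-6-phosphate in HEPES/KCl/Mg(OAc)2 buffer. kobs came from decay fits and kcat and KM from weighted Michaelis–Menten fits.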

[2] = variants of: B1; experiment: KM; higher = weaker cofactor use; RNA array
Method in brief: as §1

[3] = variants of: B1; experiment: self-cleavage kobs at 2500 uM GlcN6P; higher = faster cleavage; RNA array
Method in brief: as §1

[4] = variants of: B1; experiment: self-cleavage kobs at 10000 uM GlcN6P; higher = faster cleavage; RNA array
Method in brief: as §1

[5] = variants of: B1; experiment: self-cleavage kobs at 160 uM GlcN6P; higher = faster cleavage; RNA array
Method in brief: as §1

[6] = variants of: B1; experiment: self-cleavage kobs at 640 uM GlcN6P; higher = faster cleavage; RNA array
Method in brief: as §1

[7] = variants of: B1; experiment: self-cleavage kobs at 40 uM GlcN6P; higher = faster cleavage; RNA array
Method in brief: as §1

| Variant | kcat [1] [s⁻¹] | KM [2] [µM] | self-cleavage kobs at 2500 uM GlcN6P [3] [s⁻¹] | self-cleavage kobs at 10000 uM GlcN6P [4] [s⁻¹] | self-cleavage kobs at 160 uM GlcN6P [5] [s⁻¹] | self-cleavage kobs at 640 uM GlcN6P [6] [s⁻¹] | self-cleavage kobs at 40 uM GlcN6P [7] [s⁻¹] |
| --- | --- | --- | --- | --- | --- | --- | --- |
| G13A G29A | 0.000248 ± 8.5e-06 | 4980 ± 320 | 8.32e-05 ± 1.2e-05 | 0.000165 ± 2.4e-05 |  |  |  |
| A12G C68G | 3.14e-05 ± 6.3e-06 |  | 4.35e-05 ± 1.8e-05 |  |  |  |  |
| A12G C68A | 2.58e-05 ± 7.3e-06 |  | 3.36e-05 ± 9e-06 | 1.95e-05 ± 7.6e-06 |  |  |  |
| C10G G32C | < 1e-05 |  |  |  | < 1e-05 | < 1e-05 |  |
| C10G U49A | 1.12e-05 ± 2.4e-06 |  |  |  |  | < 1e-05 | < 1e-05 |
| C10G U49C | < 1e-05 |  | < 1e-05 | < 1e-05 | < 1e-05 |  | < 1e-05 |
| C10A | < 1e-05 | 559 ± 95 |  | < 1e-05 |  |  |  |
| C10U | 2.6e-05 ± 1.4e-06 | 499 ± 190 | 2.39e-05 ± 1.5e-06 | 2.41e-05 ± 1e-06 |  | 1.32e-05 ± 2e-06 | < 1e-05 |
| C10A A12C U56A | 0.000168 ± 4.1e-05 |  | 0.000306 ± 0.00011 | 0.00015 ± 2.7e-05 |  | 7.12e-05 ± 3e-05 |  |
| A6U C58G | < 1e-05 |  |  | < 1e-05 |  |  | < 1e-05 |
| A12C U46C | 0.00298 ± 0.0008 | 1680 ± 590 | 0.00273 ± 0.00089 | 0.0026 ± 0.00058 | 0.000265 ± 5.1e-05 | 0.000606 ± 0.00017 | 7.98e-05 ± 1.5e-05 |
| A6U C16A | 1.85e-05 ± 5.8e-06 |  |  |  |  |  |  |
| C11A C61A | < 1e-05 |  |  |  |  |  |  |
| G13A U30G | 0.000441 ± 4.8e-05 | 6050 ± 1100 | 0.000144 ± 3.3e-05 | 0.000271 ± 3.9e-05 |  | 3.9e-05 ± 1e-05 |  |
| C11U C71A | 0.000412 ± 2.6e-05 | 1790 ± 200 | 0.00024 ± 4.4e-05 | 0.000354 ± 6.1e-05 | 4.15e-05 ± 1.7e-05 | 0.000106 ± 1.5e-05 |  |
| C11G A39U | < 1e-05 |  | < 1e-05 |  | < 1e-05 |  |  |
| A12G G40U | 0.000365 ± 1.8e-05 | 3740 ± 350 | 0.000148 ± 1.3e-05 | 0.000265 ± 1.9e-05 |  | 5.37e-05 ± 6.7e-06 |  |
| A12G A52U | < 1e-05 |  |  |  |  | < 1e-05 | < 1e-05 |
| A12G C71A | 0.000639 ± 4.4e-05 | 4880 ± 500 | 0.000215 ± 3.9e-05 | 0.00043 ± 5.9e-05 |  | 7.45e-05 ± 1e-05 |  |
